Data on 2 molecules can be found in publication PMC3605307 (2013).

What all share (experiment): SPR
Background: In SPR one partner is held on a chip, and binding of the other changes the refractive index at the surface.

The target in assay [1] is Human TRAIL-R2-Fc triple mutation V167A-W173A-V179A (human, UniProt O14763 58-184, V167A | W173A | V179A).
The next assay addresses Human TRAIL-R2-Fc V167A (human, UniProt O14763 58-184, V167A).
The next assay addresses Human TRAIL-R2-Fc F112A (human, UniProt O14763 58-184, F112A).
Assay [2] deals with Human TRAIL-R2-Fc D109A together with E78A (human, UniProt O14763 58-184, E78A | D109A).
Human TRAIL-R2-Fc D109A together with E78A, sequence (O14763 58-184 E78A/D109A): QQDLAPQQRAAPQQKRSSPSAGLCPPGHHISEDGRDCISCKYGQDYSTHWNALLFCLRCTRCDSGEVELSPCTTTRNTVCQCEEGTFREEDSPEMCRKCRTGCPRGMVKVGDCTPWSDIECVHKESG

Human TRAIL-R2-Fc triple mutation V167A-W173A-V179A, sequence (O14763 58-184 V167A/W173A/V179A): as the sequence (O14763 58-184 E78A/D109A) above, with A21E, A52D, V110A, W116A, V122A counted along it
Human TRAIL-R2-Fc F112A, sequence (O14763 58-184 F112A): as the sequence (O14763 58-184 E78A/D109A) above, with A21E, A52D, F55A counted along it
Human TRAIL-R2-Fc V167A, sequence (O14763 58-184 V167A): as the sequence (O14763 58-184 E78A/D109A) above, with A21E, A52D, V110A counted along it

B1: TRAIL (TNF-related apoptosis inducing ligand) ectodomain (ligand)
chain: TNELKQMQDKYSKSGIACFLKEDDSYWDPNDEESMNSPCWQVKWQLRQLVRKMILRTSEETISTVQEKQQNISPLVRERGPQRVAAHITGTRGRSNTLSSPNSKNEKALGRKINSWESSRSGHSFLSNLHLRNGELVIHEKGFYYIYSQTYFRFQEEIKENTKNDKQMVQYIYKYTSYPDPILLMKSARNSCWSKDAEYGLYSIYQGGIFELKENDRIFVSVTNEHLIDMDHEASFFGAFLVG
On to B1, for which the Kd (in assay [1]; with Human TRAIL-R2-Fc V167A; with Human TRAIL-R2-Fc F112A; in assay [2]) was 4 nM throughout.

B2: Recombinant UL141 ectodomain (soluble, released from the Fc fusion) (domain or fragment)
chain: SFPFATADIAEKMWAENYETTSPAPVLVAEGEQVTIPCTVMTHSWPMVSIRARFCRSHDGSDELILDAVKGHRLMNGLQYRLPYATWNFSQLHLGQIFSLTFNVSTDTAGMYECVLRNYSHGLIMQRFVILTQLETLSRPDEPCCTPALGRYSLGDQIWSPTPWRLRNHDCGMYRGFQRNYFYIGRADAEDCWKPACPDEEPDRCWTVIQRYRLPGDCYRSQPHPPKFLPVTPAPPADIDTGMSPWATRG
B2 had a dissociation constant (Kd) in assay [2] of 60 nM.

What is called Kd is the concentration at which binding is half-saturated. A high value points to weaker binding.
